*1 amine or outer side, *2 acyl side, *3 side chain or, on linkers, in order; H or OH if unused. Bridges are numbered along the chain shown (N, C = ends). Primed or numbered codes have the meaning given here. [ ]: non-standard residue; d: D form. The star is where a group is joined. DOTA = O=C(O)CN1CCN(CC(=O)O)CCN(CC(=O)*)CCN(CC(=O)O)CC1; TATA = O=C(CC[*:1])N1CN(C(=O)CC[*:2])CN(C(=O)CC[*:3])C1; NOTA = O=C(O)CN1CCN(CC(=O)O)CCN(CC(=O)*)CC1; Hyp = O=C(O)[C@@H]1C[C@@H](O)CN1; hArg = N=C(N)NCCCC[C@H](N)C(=O)O; PEG2′ = not defined here; Sar = CNCC(=O)O
What was measured:
Conditions in all cases: both partners purified
His-tagged human EphA2 [1] = molecular target: T1, His-tagged human EphA2 (human, UniProt P29317 24-537); assay: SPR; Biacore T200, CM5 chip, 25 °C; His-tagged human EphA2 captured on immobilised anti-His antibody (FC2); AJ210 as analyte, 0.625-80 nM, in HBS-P + 0.1% DMSO, 50 μL/min, contact 120 s, dissociation 600 s; 1:1 kinetics model
T1 construct: human EphA2 (Ephrin receptor A2), recombinant, 56.9 kDa; also called recombinant human EphA2 protein; hEphA2; source: bought: R&D systems, catalog # 3035-A2
T1 sequence (P29317 24-537): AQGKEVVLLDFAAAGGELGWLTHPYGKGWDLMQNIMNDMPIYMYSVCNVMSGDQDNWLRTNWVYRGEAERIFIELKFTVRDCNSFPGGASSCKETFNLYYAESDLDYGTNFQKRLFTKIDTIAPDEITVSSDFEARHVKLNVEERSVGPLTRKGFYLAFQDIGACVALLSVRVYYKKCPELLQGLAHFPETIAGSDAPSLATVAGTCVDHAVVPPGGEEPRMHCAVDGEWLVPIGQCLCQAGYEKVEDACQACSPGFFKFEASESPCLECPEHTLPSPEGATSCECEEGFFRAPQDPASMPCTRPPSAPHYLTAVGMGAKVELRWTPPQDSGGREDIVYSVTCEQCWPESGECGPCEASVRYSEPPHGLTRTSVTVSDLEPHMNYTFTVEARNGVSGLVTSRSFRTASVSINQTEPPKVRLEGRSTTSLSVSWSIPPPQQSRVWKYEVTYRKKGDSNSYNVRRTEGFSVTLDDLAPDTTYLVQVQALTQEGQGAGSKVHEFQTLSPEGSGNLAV

His-tagged mouse EphA2 = molecular target: T2, His-tagged mouse EphA2 (mouse, UniProt Q03145 26-538); assay: SPR; Biacore T200, CM5 chip, 25 °C; His-tagged EphA2 captured (~750 RU) on amine-coupled anti-His antibody; peptide as analyte in HBS-P (10 mM HEPES pH 7.4, 150 mM NaCl, 0.05% P20) + 0.1% DMSO, 50 μL/min, contact 120 s, dissociation 600 s; 1:1 kinetics model
T2 construct: Mouse EphA2, recombinant, His-tagged, printed as 58 kDa; also called mEphA2; recombinant mouse EphA2; source: bought: SinoBiological, cat.# 50586-M08H
T2 sequence (Q03145 26-538): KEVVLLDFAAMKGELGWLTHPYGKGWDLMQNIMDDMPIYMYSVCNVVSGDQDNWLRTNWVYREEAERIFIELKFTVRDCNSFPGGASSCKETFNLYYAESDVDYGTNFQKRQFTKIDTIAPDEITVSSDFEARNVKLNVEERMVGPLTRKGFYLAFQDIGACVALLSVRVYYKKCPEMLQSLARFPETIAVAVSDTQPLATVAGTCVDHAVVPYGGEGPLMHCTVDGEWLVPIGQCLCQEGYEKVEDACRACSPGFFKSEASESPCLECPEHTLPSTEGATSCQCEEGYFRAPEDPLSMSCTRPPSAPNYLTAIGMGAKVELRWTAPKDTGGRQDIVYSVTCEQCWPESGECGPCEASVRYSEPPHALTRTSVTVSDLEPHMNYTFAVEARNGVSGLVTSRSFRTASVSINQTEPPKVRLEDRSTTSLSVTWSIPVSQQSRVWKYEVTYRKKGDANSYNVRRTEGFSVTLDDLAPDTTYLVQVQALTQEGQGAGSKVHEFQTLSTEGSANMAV

His-tagged human EphA2 [2] = molecular target: T3, His-tagged human EphA2 (human, UniProt P29317 24-537); assay: as above
T3 construct: Human EphA2 (Ephrin receptor A2), recombinant, His-tagged, printed as 56.9 kDa; also called hEphA2; recombinant human EphA2; source: bought: R&D systems, catalog # 3035-A2
T3 sequence (P29317 24-537): as the sequence (P29317 24-537) above

Binder | Kd (His-tagged human EphA2 [1]) [nM] | koff (His-tagged human EphA2 [1]) [s⁻¹] | kon (His-tagged human EphA2 [1]) [M⁻¹ s⁻¹] | Kd (His-tagged mouse EphA2) [nM] | Kd (His-tagged human EphA2 [2]) [nM]
{DOTA}-A[hArg]DC[Hyp]LVNPLCLHP[dD]W[hArg]C-NH2 (linker 4-11-18 via TATA; SMILES CC(C)C[C@@H]1NC(=O)[C@@H]2CSCCC(=O)N3CN(CN(C3)C(=O)CCSC[C@H](NC(=O)[C@H](CC(=O)O)NC(=O)[C@H](CCCCNC(=N)N)NC(=O)[C@H](C)NC(=O)CN3CCN(CC(=O)O)CCN(CC(=O)O)CCN(CC(=O)O)CC3)C(=O)N3C[C@H](O)C[C@H]3C(=O)N[C@@H](CC(C)C)C(=O)N[C@@H](C(C)C)C(=O)N[C@@H](CC(N)=O)C(=O)N3CCC[C@H]3C(=O)N[C@@H](CC(C)C)C(=O)N2)C(=O)CCSC[C@@H](C(N)=O)NC(=O)[C@H](CCCCNC(=N)N)NC(=O)[C@H](Cc2c[nH]c3ccccc23)NC(=O)[C@@H](CC(=O)O)NC(=O)[C@@H]2CCCN2C(=O)[C@H](Cc2c[nH]cn2)NC1=O) [AJ210] | 2.4 | 0.00136 | 561000 |  | 
{NOTA-PEG2′}-GR[Sar][Sar][Sar]GA[hArg]DC[Hyp]LVNPLCLHP[dD]W[hArg]C-NH2 (linker 10-17-24 via TATA; not fully specified; also: hydroxyproline, place not given here, also called non-radioactive AJ201; bicyclic peptide AJ201; source: synthetic peptide, synthesized by CPC Scientific Inc., >90% purity) [AJ201] |  |  |  | 0.6 | 0.2

Reference: article PMC11984392, “EphA2-targeted alpha-particle theranostics for enhancing PDAC treatment” (Theranostics, 2025)
